For experiment [1], the target named is SARS-CoV-2 receptor binding domain (RBD), biotinylated (SARS-CoV-2, Wuhan-type, UniProt P0DTC2, biotin (BirA, on the Avi tag)). Put plainly: BLI. The settings on record: both partners purified.
For experiment [2], the target named is T1, Tor2 SARS-CoV spike (Toronto, 2003) (SARS-CoV, strain Tor2).
T1 construct: also called Tor2 spike protein
The experiment can be described thus: ELISA; antibody at 2 ug/ml against Tor2 SARS-CoV spike.

What is called Kd is the free concentration of one partner at which half of the binding sites on the other are occupied at equilibrium, for simple one-to-one binding. Broadly, the koff is a measure of how fast the partners let go of each other. A low value points to slow dissociation. The term kon denotes the rate constant with which the complex forms. A lower kon goes with slow association.

B1: Ab 2-7 scFv (scFv, V domains shown)
VH: QVTLKESGPTRVKPTQTLTLTCTFSGFSLSTTGVGVGWIRQPPGKALEWLALIYWNDDKRYSPSLKSRLTITKDTSKNQVVLTMTNMDPVDTATYYCARISGSGYFYPFDIWGQGTTVTVSS
VL: NFMLTQPHSVSESPGKTVTISCTRSSGSIASNYVQWYQQRPGSSPTTVIYEDNQRPSGVPDRFSGSIDSSSNSASLTISGLKAEDEADYYCQSYDSSSLWVFGGGTKLTVL
In experiment [1], B1 had a Kd of 0.107 nM, a koff of 4.81e-05 s⁻¹ and an association rate constant (kon) of 452000 M⁻¹ s⁻¹.

B2: Ab 2-7 scFv-Fc (Fc fusion)
VH: QVTLKESGPTRVKPTQTLTLTCTFSGFSLSTTGVGVGWIRQPPGKALEWLALIYWNDDKRYSPSLKSRLTITKDTSKNQVVLTMTNMDPVDTATYYCARISGSGYFYPFDIWGQGTTVTVSS
VL: NFMLTQPHSVSESPGKTVTISCTRSSGSIASNYVQWYQQRPGSSPTTVIYEDNQRPSGVPDRFSGSIDSSSNSASLTISGLKAEDEADYYCQSYDSSSLWVFGGGTKLTVL
In the case of B2, the binding result in experiment [2] is “binds”.

Source of the values: publication PMC9528872 (Nature Communications, 2022).
